Measured values reported in patent US20240352156A1 (BIOGRAPH 55, published 2024).

T1: CD19 (antigen in solution, Octet assays) (human, UniProt P15391 20-291, limits assumed)
T1 construct: also called Cluster of Differentiation 19; B4
T1 sequence (looked up): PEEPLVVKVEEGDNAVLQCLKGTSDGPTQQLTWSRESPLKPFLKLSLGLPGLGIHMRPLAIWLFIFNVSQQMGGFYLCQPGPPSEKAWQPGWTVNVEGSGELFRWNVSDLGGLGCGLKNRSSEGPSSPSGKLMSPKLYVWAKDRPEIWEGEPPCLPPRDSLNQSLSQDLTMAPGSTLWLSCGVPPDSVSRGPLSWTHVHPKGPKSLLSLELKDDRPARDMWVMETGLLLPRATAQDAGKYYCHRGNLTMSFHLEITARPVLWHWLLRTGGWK


How the values were obtained:
[1] = target: T2, CD38 (antigen in solution, Octet assays) (human, UniProt P28907 43-300, limits assumed); assay: BLI (OctetRed96), antibody on anti-hIgG Fc capture sensor
T2 construct: also called Cluster of Differentiation 38; ADPRC1
Description: (§1) The binding affinities of parental and bispecific antibodies were determined using bio-layer interferometry. Binding experiments were performed on OctetRed96 at 25° C. using an assay Buffer consisting of 0.1% BSA, 1×PBS, 0.02% Tween-20, 0.05% NaN3. The antibodies were loaded onto Anti-hIgGFc Capture biosensors for 300 seconds. The ligand-loaded sensors were dipped into a series dilution (starting at 300 nM: two-fold series dilution for CD19 and three-fold series dilution for CD38) of the antigens for association (200 seconds for CD19 and 150 seconds for CD38) followed by dissociation (600 seconds for CD19 and 400 seconds for CD38). Kinetic constants were calculated using a monovalent (1:1) binding model.

[2] = target: T3, CD38 on cells (CD38-transfected HEK293, Daudi, REH) (human, UniProt P28907 1-300); assay: flow cytometry on CD38-transfected HEK293 cells, MFI against test article concentration
T3 construct: whole, on cells; also called HEK293-CD38

[3] = target: T1, CD19 (antigen in solution, Octet assays); assay: BLI (OctetRed96), antibody on anti-hIgG Fc capture sensor
Description: as §1

binding result [2]	Binder	binding result [1]	binding result [3]
no binding (tested: 133 nM)	851A = anti-CD19 3C10 (antibody, V domains shown, captured by anti-human IgG Fc) VH: not shown VL: DIQMTQSPSSLSASVGDRVTITCRASQGISSWLAWYQQKPEKAPKSLIYAASSLQSGVPSRFSGSGSGTDFTLTISSLQPEDFATYYCQQYKRYPYTFGQGTKLEIKR	no binding (tested: antigen dilutions starting at 300 nM)	
	851C = anti-CD38 003 heavy chain & anti-CD19 3C10 light chain (antibody, V domains shown) VH: not shown VL: DIQMTQSPSSLSASVGDRVTITCRASQGISSWLAWYQQKPEKAPKSLIYAASSLQSGVPSRFSGSGSGTDFTLTISSLQPEDFATYYCQQYKRYPYTFGQGTKLEIKR		no binding (tested: antigen dilutions starting at 300 nM)
